Laboratory results from PMC7725820, “Heme biosynthesis depends on previously unrecognized acquisition of iron-sulfur cofactors in human amino-levulinic acid dehydratase” (Nature Communications, 2020).
Where a chain is given by its changes, count along the chain named.

B1: MBP-ALAD C162A (enzyme, human, UniProt P13716 1-330, looked up)
chain: MQPQSVLHSGYFHPLLRAWQTATTTLNASNLIYPIFVTDVPDDIQPITSLPGVARYGVKRLEEMLRPLVEEGLRCVLIFGVPSRVPKDERGSAADSEESPAIEAIHLLRKTFPNLLVACDVCLCPYTSHGHCGLLSENGAFRAEESRQRLAEVALAYAKAGAQVVAPSDMMDGRVEAIKEALMAHGLGNRVSVMSYSAKFASCFYGPFRDAAKSSPAFGDRRCYQLPPGARGLALRAVDRDVREGADMLMVKPGMPYLDIVREVKDKHPDLPLAVYHVSGEFAMLWHGAQAGAFDLKAAVLEAMTAFRRAGADIIITYYTPQLLQWLKEE
notes: aminolevulinic acid dehydratase (ALAD), human; source: E. coli BL21(DE3), expressed along with the isc operon, purified anaerobically (amylose resin); not shown: MBP, N-terminal, kept
B2: MBP-ALAD C132A (enzyme, human, UniProt P13716 1-330, looked up)
chain: B1 chain with C132A, A162C
notes: as for B1
B3: MBP-ALAD C223A (enzyme, human, UniProt P13716 1-330, looked up)
chain: B1 chain with A162C, C223A
notes: as for B1
B4: MBP-ALAD C122A (enzyme, human, UniProt P13716 1-330, looked up)
chain: B1 chain with C122A, A162C
notes: as for B1
B5: MBP-ALAD C119A (enzyme, human, UniProt P13716 1-330, looked up)
chain: B1 chain with C119A, A162C
notes: as for B1
B6: MBP-ALAD Mut AFR-AAA (enzyme, human, UniProt P13716 1-330, looked up)
chain: B1 chain with A162C, F307A, R308A
notes: aminolevulinic acid dehydratase (ALAD), human, Ala306-Phe307-Arg308 motif replaced by alanines; source: E. coli BL21(DE3), expressed along with the isc operon, purified anaerobically (amylose resin); not shown: MBP, N-terminal, kept
B7: MBP-ALAD C124A (enzyme, human, UniProt P13716 1-330, looked up)
chain: B1 chain with C124A, A162C
notes: as for B1
B8: MBP-ALAD K252M (enzyme, human, UniProt P13716 1-330, looked up)
chain: B1 chain with A162C, K252M
notes: as for B1
B9: N-terminally MBP-tagged human ALAD, wild type (MBP-ALAD) (enzyme, UniProt P13716 1-330, looked up)
chain: B1 chain with A162C
notes: aminolevulinic acid dehydratase (ALAD), human, wild type; One [Fe4S4] cluster per monomer when purified anaerobically; The three cofactor states (Fe-S, apo, zinc) are told apart by the assay; the ~480 kD hexamer fits it; also called ALAD WT; [Fe4S4]-ALAD; source: E. coli BL21(DE3), expressed along with the A. vinelandii isc operon, purified anaerobically (amylose resin); also purified …

Target: the molecule itself
Assay: native gel or EMSA; NativePAGE Bis-Tris gel; MBP-ALAD proteins expressed along with the isc operon in E. coli and purified anaerobically

Stoichiometry N, 6:
B1
B2
B3
B4
B5
B6
B7
B8

Target: the molecule itself
Assay: native gel or EMSA; NativePAGE Bis-Tris gel; aerobically purified, EDTA-treated metal-free wild-type ALAD (aero-apo-ALAD WT)

Stoichiometry N, 6:
B9
